# B1: Complement factor H (Homo sapiens), P08603 (parent)
# chain: MRLLAKIICLMLWAICVAEDCNELPPRRNTEILTGSWSDQTYPEGTQAIYKCRPGYRSLGNVIMVCRKGEWVALNPLRKCQKRPCGHPGDTPFGTFTLTGGNVFEYGVKAVYTCNEGYQLLGEINYRECDTDGWTNDIPICEVVKCLPVTAPENGKIVSSAMEPDREYHFGQAVRFVCNSGYKIEGDEEMHCSDDGFWSKEKPKCVEISCKSPDVINGSPISQKIIYKENERFQYKCNMGYEYSERGDAVCTESGWRPLPSCEEKSCDNPYIPNGDYSPLRIKHRTGDEITYQCRNGFYPATRGNTAKCTSTGWIPAPRCTLKPCDYPDIKHGGLYHENMRRPYFPVAVGKYYSYYCDEHFETPSGSYWDHIHCTQDGWSPAVPCLRKCYFPYLENGYNQNYGRKFVQGKSIDVACHPGYALPKAQTTVTCMENGWSPTPRCIRVKTCSKSSIDIENGFISESQYTYALKEKAKYQCKLGYVTADGETSGSITCGKDGWSAQPTCIKSCDIPVFMNARTKNDFTWFKLNDTLDYECHDGYESNTGSTTGSIVCGYNGWSDLPICYERECELPKIDVHLVPDRKKDQYKVGEVLKFSCKPGFTIVGPNSVQCYHFGLSPDLPICKEQVQSCGPPPELLNGNVKEKTKEEYGHSEVVEYYCNPRFLMKGPNKIQCVDGEWTTLPVCIVEESTCGDIPELEHGWAQLSSPPYYYGDSVEFNCSESFTMIGHRSITCIHGVWTQLPQCVAIDKLKKCKSSNLIILEEHLKNKKEFDHNSNIRYRCRGKEGWIHTVCINGRWDPEVNCSMAQIQLCPPPPQIPNSHNMTTTLNYRDGEKVSVLCQENYLIQEGEEITCKDGRWQSIPLCVEKIPCSQPPQIEHGTINSSRSSQESYAHGTKLSYTCEGGFRISEENETTCYMGKWSSPPQCEGLPCKSPPEISHGVVAHMSDSYQYGEEVTYKCFEGFGIDGPAIAKCLGEKWSHPPSCIKTDCLSLPSFENAIPMGEKKDVYKAGEQVTYTCATYYKMDGASNVTCINSRWTGRPTCRDTSCVNPPTVQNAYIVSRQMSKYPSGERVRYQCRSPYEMFGDEEVMCLNGNWTEPPQCKDSTGKCGPPPPIDNGDITSFPLSVYAPASSVEYQCQNLYQLEGNKRITCRNGQWSEPPKCLHPCVISREIMENYNIALRWTAKQKLYSRTGESVEFVCKRGYRLSSRSHTLRTTCWDGKLEYPTCAKR
# partner: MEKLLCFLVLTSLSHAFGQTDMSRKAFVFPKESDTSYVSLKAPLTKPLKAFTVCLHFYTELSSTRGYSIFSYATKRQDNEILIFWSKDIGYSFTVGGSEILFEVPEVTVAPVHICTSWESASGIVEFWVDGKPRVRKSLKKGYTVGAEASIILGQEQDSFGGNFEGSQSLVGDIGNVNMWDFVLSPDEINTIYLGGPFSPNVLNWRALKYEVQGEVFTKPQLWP
# B2: Complement factor H (Homo sapiens), P08603 (parent)
# chain: B1 chain
# partner: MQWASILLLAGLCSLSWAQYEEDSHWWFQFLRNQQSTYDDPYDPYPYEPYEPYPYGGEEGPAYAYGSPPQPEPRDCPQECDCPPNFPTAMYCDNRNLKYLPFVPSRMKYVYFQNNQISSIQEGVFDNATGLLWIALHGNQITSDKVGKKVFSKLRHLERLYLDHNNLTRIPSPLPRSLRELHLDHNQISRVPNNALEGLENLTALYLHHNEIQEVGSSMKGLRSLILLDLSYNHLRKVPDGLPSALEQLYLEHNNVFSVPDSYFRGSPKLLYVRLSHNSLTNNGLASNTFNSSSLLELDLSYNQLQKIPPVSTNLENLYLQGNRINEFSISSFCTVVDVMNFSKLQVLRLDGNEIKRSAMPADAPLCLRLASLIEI
# Variants of: B1
# Conditions: with crp_human CRP
row,Variant,effect of a mutation on the interaction
1,Y402H,decreasing interaction strength

# Variants of: B2
# Conditions: with fmod_bovin FMOD
row,Variant,effect of a mutation on the interaction
1,Y402H,decreasing interaction strength

# Reference: IntAct's records for PubMed 17293598
